In patent US9109007B2, “MHC-I restricted epitopes containing non-natural amino acid residues” (Purdue Pharma L.P., priority 2010, dated 2015):
Where no end group is shown, it is not given here. [ ]: non-standard residue; d: D form. Gly(cPent) = N[C@H](C(=O)O)C1CCCC1

Biological target: T1, HLA-A2 (Homo sapiens, UniProt P04439, D140Y/D185E/D98H/E176V/E277Q/G131W/G231S/I119V/I121R/I166T/I218V/L300P/N151K/N90K/P208A/P217A/Q86G/Q94H/R138H/R169H)
T1 construct: Soluble Class I/Plate-Based Assays; purchased Beckman Coulter
Test: iTopia plate-based assay: stability (half-life) of peptide/HLA-A2 complexes
Assay type: binding
Details: for stability of complex with HLA-A2 compared with the corresponding native survivin peptide: Survivin peptide derivatives
Procedure: II. Soluble Class I/Plate-Based Assays The plate-based assay, named iTopia™, is a commercial assay (Beckman Coulter). The assay is performed in wells of microtiter plates. At the outset of the assay, MHCI complexes (properly folded MI-IC heavy chain, beta 2 microglobulin and a place-holder peptide), are tethered to streptavidin-coated microplate wells. (Proper formation/folding of the MHC complex may be determined by binding of an anti-HLA-ABC antibody). A buffer designed to unfold and dissociate the complex was added to each test well, allowed to incubate, and the place holder peptide and beta 2 microglobulin were washed away. Escalating concentrations of the test peptide, along with additional beta 2 microglobulin, were added to each well and incubated in a buffer designed to promote refolding of complexes. Plates were incubated overnight at 21° C. Properly folded MHCI complex molecules were detected with a fluorescently labeled antibody selected based on its ability to only bind properly folded MHCI complexes. Binding was reported relative to a standardized positive control peptide. Relative affinities were reported as ED50, and are defined herein as the concentration of peptide required to achieve half maximal binding of the positive control. […] Assessment of Peptide/HLA-A0201 Complex Stability. MHCI complexes were dissociated in each test well using stripping buffer, and the place-holder peptide and beta 2 microglobulin were washed away. 100 uM of the test peptide was added to appropriate wells along with additional beta 2 microglobulin and the anti-HLA ABC antibody, and the plates were incubated overnight at 21° C. Plates were washed, and fresh buffer was added to each well. Plates were shifted to 37° C., and the appropriate wells were read at 0, 0.5, 1, 1.5, 2, 4, 6 and 8 hours.

Substance | stability of complex with HLA-A2 compared with the corresponding native survivin peptide | increase in the half life of the HLA-A2 peptide complex compared to the native survivin peptide (Survivin peptide derivative vs native survivin peptide)
I-[cpg]-TFKNWPF (I[Gly(cPent)]TFKNWPF) | more stable complex | 
K-[cpg]-RRAIEQL (K[Gly(cPent)]RRAIEQL) | more stable complex | greater than 20 fold
